From patent publication US20200048328A1 (Bristol-Myers Squibb, published 2020) come the findings set out here.

B1: PCSK9-PKE2 tandem 4472_E09 (designed binder)
PCSK9 domain: MGVSDVPRDLEVVAATPTSLLISWDAPAEGYGYYRITYGETGGNSPVQEFTVPVSKGTATISGLKPGVDYTITVYAVEFDFPGAGYYHRPISINYRTE
PKE2 domain: GVSDVPRDLEVVAATPTSLLISWDAPAVTVRYYRITYGREVQKYSDLGPLYIYQEFTVPGSKSTATISGLKPGVDYTITVYAVTGSGESPASSKPISINYRTEHHHHHH
modifications: In the real molecule the two parts given here are one polypeptide, joined by the undisclosed linker A. They are written as two chains only because the linker has no letters.
notes: not shown: Linker 'A' joining ...NYRTE of the PCSK9 domain to GVSDV... of the PKE2 domain
B2: PCSK9-PKE2 tandem 4472_E05 (designed binder, not shown: small tags and cut ends)
PCSK9 10Fn3: B1 PCSK9 domain
PKE2 10Fn3: B1 PKE2 domain
modifications: The two parts are one polypeptide in the real molecule, joined by the undisclosed linker R; they are given here as separate chains.
B3: PCSK9-PKE2 tandem 4472_B10 (designed binder)
PCSK9 domain: B1 PCSK9 domain
PKE2 domain: B1 PKE2 domain
modifications: The real molecule is ONE polypeptide: PCSK9 domain, undisclosed linker J, PKE2 domain. It is given here as two chains because the linker letters are unknown.
notes: not shown: The inter-domain linker
B4: PCSK9-PKE2 tandem 4472_B09 (designed binder, not shown: small tags and cut ends)
PCSK9 10Fn3: B1 PCSK9 domain
PKE2 10Fn3: B1 PKE2 domain
modifications: The two parts are one polypeptide in the real molecule, joined by the undisclosed linker K; they are given here as separate chains.
B5: PCSK9-PKE2 tandem 4472_B05 (designed binder, not shown: small tags and cut ends)
PCSK9 10Fn3: B1 PCSK9 domain
PKE2 10Fn3: B1 PKE2 domain
modifications: The two parts are one polypeptide in the real molecule, joined by the undisclosed linker O; they are given here as separate chains.
B6: PCSK9-PKE2 tandem 4472_H11 (designed binder, not shown: small tags and cut ends)
PCSK9 10Fn3: B1 PCSK9 domain
PKE2 10Fn3: B1 PKE2 domain
modifications: The two parts are one polypeptide in the real molecule, joined by the undisclosed linker P (a code, not a proline); they are given here as separate chains.
B7: PCSK9-PKE2 tandem 4472_B11 (designed binder, not shown: small tags and cut ends)
PCSK9 10Fn3: B1 PCSK9 domain
PKE2 10Fn3: B1 PKE2 domain
modifications: The two parts are one polypeptide in the real molecule, joined by the undisclosed linker L; they are given here as separate chains.
B8: PCSK9-PKE2 tandem 4472_G10 (designed binder)
PCSK9 domain: B1 PCSK9 domain
PKE2 domain: B1 PKE2 domain
modifications: The real molecule is ONE polypeptide: PCSK9 domain, undisclosed linker H (a code letter), PKE2 domain. It is given here as two chains because the linker letters are unknown.
notes: as for B3
B9: PCSK9-PKE2 tandem 4472_A06 (designed binder, not shown: small tags and cut ends)
PCSK9 10Fn3: B1 PCSK9 domain
PKE2 10Fn3: B1 PKE2 domain
modifications: The two parts are one polypeptide in the real molecule, joined by the undisclosed linker M; they are given here as separate chains.
B10: PCSK9-PKE2 tandem 4472_D08 (designed binder, not shown: small tags and cut ends)
PCSK9 10Fn3: B1 PCSK9 domain
PKE2 10Fn3: B1 PKE2 domain
modifications: The two parts are one polypeptide in the real molecule, joined by the undisclosed linker N; they are given here as separate chains.
B11: PCSK9-PKE2 tandem 4472_C08 (designed binder)
PCSK9 domain: B1 PCSK9 domain
PKE2 domain: B1 PKE2 domain
modifications: The real molecule is ONE polypeptide: PCSK9 domain, undisclosed linker 'E' (a code letter, not the residue), PKE2 domain. It is given here as two chains because the linker letters are unknown.
notes: as for B3
B12: PCSK9-PKE2 tandem 4472_B03 (designed binder)
PCSK9 domain: B1 PCSK9 domain
PKE2 domain: B1 PKE2 domain
notes: not shown: The inter-domain linker; In the real molecule the two parts below are one polypeptide joined by this linker
B13: PCSK9-PKE2 tandem 4472_A11 (designed binder)
PCSK9 domain: B1 PCSK9 domain
PKE2 domain: B1 PKE2 domain
modifications: In the real molecule the two parts given here are one polypeptide, joined by the undisclosed linker B. They are written as two chains only because the linker has no letters.
notes: not shown: Linker 'B' joining ...NYRTE of the PCSK9 domain to GVSDV... of the PKE2 domain
B14: PCSK9-PKE2 tandem 4472_F06 (designed binder)
PCSK9 domain: B1 PCSK9 domain
PKE2 domain: B1 PKE2 domain
modifications: The real molecule is ONE polypeptide: PCSK9 domain, undisclosed linker 'G' (a code letter, not the residue), PKE2 domain. It is given here as two chains because the linker letters are unknown.
notes: as for B3
B15: PCSK9-PKE2 tandem 4472_H09 (designed binder)
PCSK9 domain: B1 PCSK9 domain
PKE2 domain: B1 PKE2 domain
modifications: The real molecule is ONE polypeptide: PCSK9 domain, undisclosed linker C, PKE2 domain. It is given here as two chains because the linker letters are unknown.
notes: as for B3
B16: PCSK9-PKE2 tandem 4472_E04 (designed binder, not shown: small tags and cut ends)
PCSK9 10Fn3: B1 PCSK9 domain
PKE2 10Fn3: B1 PKE2 domain
modifications: The two parts are one polypeptide in the real molecule, joined by the undisclosed linker Q; they are given here as separate chains.
B17: PCSK9-PKE2 tandem 4472_F04 (designed binder)
PCSK9 domain: B1 PCSK9 domain
PKE2 domain: B1 PKE2 domain
modifications: The real molecule is ONE polypeptide: PCSK9 domain, undisclosed linker D, PKE2 domain. It is given here as two chains because the linker letters are unknown.
notes: as for B3

For one experiment, the target named is T1, human PCSK9 (human, UniProt Q8NBP7 31-692).
T1 construct: also called hPCSK9; huPCSK9
The experiment in a line: PCSK9:LDLR FRET, competition.
A word on the IC50: it is the point on the concentration scale where inhibition reaches its midpoint. A lower IC50 goes with greater potency. Molecule B1 gave an IC50 of 1.3 nM.
The same measure, in the same setting: as for B2, the figure is 1.5 nM.
B3 returned an IC50 of 2.2 nM.
As for B4, the IC50 amounted to 2.4 nM.
The same measure, in the same setting: the result for B5 reads 1.9 nM; that for B6, 1.3 nM; that for B7, 2 nM.
On to B8, for which the IC50 came out at 2.4 nM.
On to B9, for which the IC50 worked out at 1.6 nM.
Still for that read-out and setting: as for B10, the figure is 1.7 nM; as for B11, 1.9 nM; as for B12, 1.4 nM.
Molecule B13 registered an IC50 of 1.4 nM.
In the case of B14, the IC50 turned out to be 1.1 nM.
B15 showed an IC50 of 3 nM.
Turning to B16, the concentration for half-maximal inhibition (IC50) stood at 2 nM.
B17: the IC50 came to 1.2 nM.

A further experiment addresses T2, human serum albumin (human, UniProt P02768 25-609).
T2 construct: immobilized on chips or coated on plates elsewhere; also called HSA; HuSA
Put plainly: direct binding ELISA, albumin coated.
For orientation: EC50 means the concentration needed to bring the measured effect to its halfway point. High values mean a less potent agent, low ones a more potent agent. Turning to B1, the EC50 was found to be 23.8 nM.
Take B2: the EC50 was determined as 102 nM.
The molecule B3 had an EC50 of 67.7 nM.
The molecule B4 returned an EC50 of 69.2 nM.
On to B5, for which the EC50 was 85.1 nM.
On to B6, for which the midpoint of the response, the EC50, lay at 85.3 nM.
B7 showed an EC50 of 70.1 nM.
B8 displayed an EC50 of 61.3 nM.
Take B9: the EC50 is 77.8 nM.
Same read-out and setting: as for B10, the figure is 80.2 nM.
Same read-out and setting: the result for B11 reads 40.4 nM.
Same read-out and setting: the result for B12 reads 124 nM.
Regarding B13, the EC50 was 26.9 nM.
On the same count and under the same terms, the result for B14 reads 58.9 nM.
In turn, B15 had an EC50 of 27.8 nM.
Turning to B16, it took 101 nM to reach a half-maximal effect (EC50).
Molecule B17 yielded an EC50 of 40.3 nM.

In a further experiment the target is T3, mouse serum albumin (mouse, UniProt P07724 25-608).
T3 construct: also called MSA; MuSA
Put plainly: direct binding ELISA, albumin coated. On the technique in general: ELISA stands for enzyme-linked immunosorbent assay.
In turn, B1 yielded an EC50 of 7 nM.
B2 registered an EC50 of 13.1 nM.
Take B3: the EC50 came to 10.9 nM.
Same read-out and setting: the result for B4 reads 9.8 nM; that for B5, 9.3 nM.
Turning to B6, the EC50 is 13.2 nM.
Turning to B7, a half-maximal response (EC50) required 13.5 nM.
On the same count and under the same terms, as for B8, the figure is 10 nM.
On the same count and under the same terms, the result for B9 reads 8.6 nM.
B10: the EC50 is 9.5 nM.
Molecule B11 yielded an EC50 of 4.8 nM.
B12: the EC50 was determined as 14.8 nM.
B13 showed an EC50 of 3.9 nM.
Consider B14, for which a half-maximal effect (EC50) was put at 11.3 nM.
In turn, B15 had an EC50 of 4 nM.
Same read-out and setting: as for B16, the figure is 8.9 nM; as for B17, 3.8 nM.

In another experiment the target is T4, rhesus serum albumin (rhesus, UniProt Q28522 17-600).
T4 construct: also called RhSA; Rh-SA
Put plainly: direct binding ELISA, albumin coated.
Molecule B1 showed an EC50 of 19.8 nM.
Regarding B2, the EC50 amounted to 63.1 nM.
On to B3, for which the midpoint of the response, the EC50, lay at 38.9 nM.
B4 displayed an EC50 of 45.1 nM.
On the same count and under the same terms, the result for B5 reads 59.5 nM; that for B6, 58.1 nM.
Still for that read-out and setting: as for B7, the figure is 54 nM; as for B8, 48.3 nM; as for B9, 44.4 nM.
The same measure, in the same setting: the result for B10 reads 54.1 nM; that for B11, 25.7 nM; that for B12, 98.2 nM.
Molecule B13 came in with an EC50 of 15.7 nM.
On the same count and under the same terms, as for B14, the figure is 40.8 nM; as for B15, 26.8 nM; as for B16, 64.8 nM.
Molecule B17 came in with an EC50 of 27.8 nM.

A further experiment addresses T1, human PCSK9. Put plainly: PCSK9:EGFA FRET 2, competition.
With B1, the IC50 is 4.81 nM.
Take B2: the IC50 came out at 4.35 nM.
Consider B3, for which the half-maximal inhibitory concentration (IC50) worked out at 6.97 nM.
On the same count and under the same terms, as for B4, the figure is 6.95 nM.
B5: the IC50 was 5.55 nM.
The molecule B6 displayed a 50% inhibitory concentration (IC50) of 6.24 nM.
Still for that read-out and setting: as for B7, the figure is 5.03 nM; as for B8, 6.81 nM; as for B9, 2.72 nM.
The same measure, in the same setting: the result for B10 reads 5.22 nM; that for B11, 5.09 nM.
Still for that read-out and setting: as for B12, the figure is 4.83 nM; as for B13, 3.76 nM; as for B14, 3.42 nM.
In the case of B15, the IC50 turned out to be 7.17 nM.
Molecule B16 returned a half-inhibitory concentration (IC50) of 7.54 nM.
Still for that read-out and setting: the result for B17 reads 4.18 nM.

The next experiment deals with T1, human PCSK9. Put plainly: PCSK9:EGFA FRET 1, competition.
In turn, B1 had an IC50 of 5.81 nM.
B2 gave an IC50 of 5.66 nM.
Still for that read-out and setting: as for B3, the figure is 9.69 nM.
Still for that read-out and setting: as for B4, the figure is 9.36 nM.
The same measure, in the same setting: the result for B5 reads 6.66 nM.
On to B6, for which the IC50 worked out at 8.76 nM.
Still for that read-out and setting: the result for B7 reads 6.54 nM; that for B8, 7.81 nM.
The molecule B9 had an IC50 of 9.06 nM.
In the case of B10, the IC50 was 6.32 nM.
On to B11, for which the IC50 amounted to 9.38 nM.
Same read-out and setting: as for B12, the figure is 7.45 nM.
Consider B13, for which the IC50 came to 6.13 nM.
Same read-out and setting: as for B14, the figure is 4.5 nM; as for B15, 9.66 nM; as for B16, 9.45 nM.
Molecule B17 displayed an IC50 of 3.99 nM.
